Laboratory results published in IntAct's records for PubMed 22981988.

B1: Arfaptin-1 (Homo sapiens), P53367 (parent)
chain: MAQESPKNSAAEIPVTSNGEVDDSREHSFNRDLKHSLPSGLGLSETQITSHGFDNTKEGVIEAGAFQGSPAPPLPSVMSPSRVAASRLAQQGSDLIVPAGGQRTQTKSGPVILADEIKNPAMEKLELVRKWSLNTYKCTRQIISEKLGRGSRTVDLELEAQIDILRDNKKKYENILKLAQTLSTQLFQMVHTQRQLGDAFADLSLKSLELHEEFGYNADTQKLLAKNGETLLGAINFFIASVNTLVNKTIEDTLMTVKQYESARIEYDAYRTDLEELNLGPRDANTLPKIEQSQHLFQAHKEKYDKMRNDVSVKLKFLEENKVKVLHNQLVLFHNAIAAYFAGNQKQLEQTLKQFHIKLKTPGVDAPSWLEEQ
B2: Arfaptin-1 (Homo sapiens), P53367 (parent)
chain: B1 chain
partner: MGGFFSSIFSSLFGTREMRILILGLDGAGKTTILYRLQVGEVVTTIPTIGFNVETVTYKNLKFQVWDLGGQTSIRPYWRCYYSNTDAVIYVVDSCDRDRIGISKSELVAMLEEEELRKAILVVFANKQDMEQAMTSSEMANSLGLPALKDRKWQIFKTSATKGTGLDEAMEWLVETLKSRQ

Variants of: B1
Conditions: with arf1_human ARF1, P84077
arf1_human ARF1, P84077, sequence (P84077 whole entry): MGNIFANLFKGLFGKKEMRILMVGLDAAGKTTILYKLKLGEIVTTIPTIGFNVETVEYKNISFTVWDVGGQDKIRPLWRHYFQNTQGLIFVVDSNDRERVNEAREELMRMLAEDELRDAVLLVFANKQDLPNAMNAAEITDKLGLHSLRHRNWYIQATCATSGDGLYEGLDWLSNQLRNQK

Variant	effect of a mutation on the interaction
MAQESPKNSAAEIPVTSNGEVDDSREHSFNRDLKHSLPSGLGLSETQITSHGFDNTKEGVIEAGAFQGSPAPPLPSVMSPSRVAASRLAQQGSDLIVPAGGQRTQTKSGPVILADEIKNPAMEKLELVRKWALNTYKCTRQIISEKLGRGSRTVDLELEAQIDILRDNKKKYENILKLAQTLSTQLFQMVHTQRQLGDAFADLSLKSLELHEEFGYNADTQKLLAKNGETLLGAINFFIASVNTLVNKTIEDTLMTVKQYESARIEYDAYRTDLEELNLGPRDANTLPKIEQSQHLFQAHKEKYDKMRNDVSVKLKFLEENKVKVLHNQLVLFHNAIAAYFAGNQKQLEQTLKQFHIKLKTPGVDAPSWLEEQ [S132A]	with no effect

Variants of: B1
Conditions: with arf3_human ARF3, P61204
arf3_human ARF3, P61204, sequence (P61204 whole entry): as the sequence (P84077 whole entry) above, with A6G, F9L, G11S, F13I, S174A, R178K, Q180K counted along it

Variant	effect of a mutation on the interaction
MAQESPKNSAAEIPVTSNGEVDDSREHSFNRDLKHSLPSGLGLSETQITSHGFDNTKEGVIEAGAFQGSPAPPLPSVMSPSRVAASRLAQQGSDLIVPAGGQRTQTKSGPVILADEIKNPAMEKLELVRKWALNTYKCTRQIISEKLGRGSRTVDLELEAQIDILRDNKKKYENILKLAQTLSTQLFQMVHTQRQLGDAFADLSLKSLELHEEFGYNADTQKLLAKNGETLLGAINFFIASVNTLVNKTIEDTLMTVKQYESARIEYDAYRTDLEELNLGPRDANTLPKIEQSQHLFQAHKEKYDKMRNDVSVKLKFLEENKVKVLHNQLVLFHNAIAAYFAGNQKQLEQTLKQFHIKLKTPGVDAPSWLEEQ [S132A]	with no effect
MAQESPKNSAAEIPVTSNGEVDDSREHSFNRDLKHSLPSGLGLSETQITSHGFDNTKEGVIEAGAFQGSPAPPLPSVMSPSRVAASRLAQQGSDLIVPAGGQRTQTKSGPVILADEIKNPAMEKLELVRKWDLNTYKCTRQIISEKLGRGSRTVDLELEAQIDILRDNKKKYENILKLAQTLSTQLFQMVHTQRQLGDAFADLSLKSLELHEEFGYNADTQKLLAKNGETLLGAINFFIASVNTLVNKTIEDTLMTVKQYESARIEYDAYRTDLEELNLGPRDANTLPKIEQSQHLFQAHKEKYDKMRNDVSVKLKFLEENKVKVLHNQLVLFHNAIAAYFAGNQKQLEQTLKQFHIKLKTPGVDAPSWLEEQ [S132D]	disrupting interaction strength

Variants of: B1
Conditions: with arf1_human ARF1, P84077
Remark: another data set of the same source

Variant	effect of a mutation on the interaction
MAQESPKNSAAEIPVTSNGEVDDSREHSFNRDLKHSLPSGLGLSETQITSHGFDNTKEGVIEAGAFQGSPAPPLPSVMSPSRVAASRLAQQGSDLIVPAGGQRTQTKSGPVILADEIKNPAMEKLELVRKWDLNTYKCTRQIISEKLGRGSRTVDLELEAQIDILRDNKKKYENILKLAQTLSTQLFQMVHTQRQLGDAFADLSLKSLELHEEFGYNADTQKLLAKNGETLLGAINFFIASVNTLVNKTIEDTLMTVKQYESARIEYDAYRTDLEELNLGPRDANTLPKIEQSQHLFQAHKEKYDKMRNDVSVKLKFLEENKVKVLHNQLVLFHNAIAAYFAGNQKQLEQTLKQFHIKLKTPGVDAPSWLEEQ [S132D]	disrupting interaction strength

Variants of: B2
Conditions: with arl1_human ARL1, P40616

Variant	effect of a mutation on the interaction
MAQESPKNSAAEIPVTSNGEVDDSREHSFNRDLKHSLPSGLGLSETQITSHGFDNTKEGVIEAGAFQGSPAPPLPSVMSPSRVAASRLAQQGSDLIVPAGGQRTQTKSGPVILADEIKNPAMEKLELVRKWALNTYKCTRQIISEKLGRGSRTVDLELEAQIDILRDNKKKYENILKLAQTLSTQLFQMVHTQRQLGDAFADLSLKSLELHEEFGYNADTQKLLAKNGETLLGAINFFIASVNTLVNKTIEDTLMTVKQYESARIEYDAYRTDLEELNLGPRDANTLPKIEQSQHLFQAHKEKYDKMRNDVSVKLKFLEENKVKVLHNQLVLFHNAIAAYFAGNQKQLEQTLKQFHIKLKTPGVDAPSWLEEQ [S132A]	with no effect
MAQESPKNSAAEIPVTSNGEVDDSREHSFNRDLKHSLPSGLGLSETQITSHGFDNTKEGVIEAGAFQGSPAPPLPSVMSPSRVAASRLAQQGSDLIVPAGGQRTQTKSGPVILADEIKNPAMEKLELVRKWDLNTYKCTRQIISEKLGRGSRTVDLELEAQIDILRDNKKKYENILKLAQTLSTQLFQMVHTQRQLGDAFADLSLKSLELHEEFGYNADTQKLLAKNGETLLGAINFFIASVNTLVNKTIEDTLMTVKQYESARIEYDAYRTDLEELNLGPRDANTLPKIEQSQHLFQAHKEKYDKMRNDVSVKLKFLEENKVKVLHNQLVLFHNAIAAYFAGNQKQLEQTLKQFHIKLKTPGVDAPSWLEEQ [S132D]	disrupting interaction strength
